Reference: US20250084178A1, “ANTI-CD39 ANTIBODIES AND USE THEREOF” (ARCUS BIOSCIENCES, INC., priority 2022, published 2025)
Entries after “also recorded” stand apart in the source; their conditions may differ.

Experiments:
MC38 tumors = test: MC38 tumor volume in C57BL/6 hCD39KI mice; assay type: in vivo, mouse; settings: anti-CD39 20 mg/kg loading then 10 mg/kg BIW i.p. with oxaliplatin 5 mg/kg i.p. 1×/week; mixed-effects model
Experimental: (§1) In one experiment, C57BL/6 hCD39KI mice were inoculated with 1 million MC38 cells on day 0. When tumors reached 80 mm^3, mice were dosed intraperitoneally (i.p.) with a loading dose of 20 mg/kg anti-CD39 or isotype control antibody (vehicle: PBS), and then subsequently with 10 mg/kg anti-CD39 or isotype control antibody 2×/week (BIW). Each group consisted of 11-12 mice. […] Oxaliplatin (OXA) treatment, 5 mg/kg i.p. (vehicle: saline), was initiated the day following the anti-CD39 or isotype control loading dose and dosed 1×/week. In a similarly designed experiment, BALB/c hCD39KI mice were inoculated with 4T1 cells on day 0 and treated OXA or anti-CD39 antibody as described for the MC38 model.
(§2) Tumor volume and body weight were measured approximately twice a week (BIW) and are shown in FIG. 10A and FIG. 10B respectively, where the points represent the mean and the errors bars the standard error of the mean (SEM) of the respective metrics from each group of mice. Significance was calculated using a mixed-effects model with multiple comparisons. […] Body weight was stable over the course of the experiment indicating anti-CD39 treatment was well tolerated (FIG. 10B).

[1] = Body weight of hCD39KI MC38 mice; assay type: in vivo, mouse; settings: over the course of the experiment; C57BL/6 hCD39KI MC38 mice
Experimental: as §1, §2

human CD39 [2] = target: T1, human CD39 (Homo sapiens, UniProt P49961); test: Enzyme histochemistry of tumors and spleens from C57BL/6 hCD39KI MC38 mice; design: species or system mouse; settings: tumors and spleens treated in vivo, end of study
T1 sequence (P49961 1-510): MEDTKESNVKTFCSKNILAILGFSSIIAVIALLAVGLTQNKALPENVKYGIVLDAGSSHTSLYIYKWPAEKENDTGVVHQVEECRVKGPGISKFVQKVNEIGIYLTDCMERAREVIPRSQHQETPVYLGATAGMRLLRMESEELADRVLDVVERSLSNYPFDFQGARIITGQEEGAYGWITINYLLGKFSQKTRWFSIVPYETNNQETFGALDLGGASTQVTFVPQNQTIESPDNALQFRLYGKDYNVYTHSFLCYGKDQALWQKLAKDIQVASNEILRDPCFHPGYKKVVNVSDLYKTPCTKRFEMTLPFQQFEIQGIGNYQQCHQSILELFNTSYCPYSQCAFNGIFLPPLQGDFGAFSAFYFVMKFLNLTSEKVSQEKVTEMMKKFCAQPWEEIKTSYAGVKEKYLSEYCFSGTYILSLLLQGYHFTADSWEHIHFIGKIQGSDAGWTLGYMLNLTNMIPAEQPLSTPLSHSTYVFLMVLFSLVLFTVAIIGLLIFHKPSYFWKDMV
Experimental: Tumors and spleens from C57BL/6 hCD39KI MC38 mice at the end of the study were additionally analyzed for human CD39 expression by immunohistochemistry (IHC) and evidence of anti-CD39 antibody enzymatic blocking activity by enzyme histochemistry (EHC). Briefly, frozen OCT-embedded tumor or spleen samples were sectioned at 4 um thickness, mounted on positively charged microscope slides, air dried for 15 minutes, then placed in 4% paraformaldehyde (PFA) fixative for 20 min. After fixation, the slides were washed in Tris-buffered saline and IHC was performed on an automated Leica Bond Rx platform starting with blocking of endogenous peroxidases, followed by incubation with a rabbit anti-CD39 mAb (Abcam, EPR20627), and detected with an anti-rabbit HRP polymer system followed by a diaminobenzidine (DAB) brown chromogen, hematoxylin nuclear counterstain, and then dehydrated and mounted. […] Human CD39 expression was detected in both isotype treated (FIG. 11, panel A and FIG. 12, panel A, low- and high-power magnification, respectively) and anti-CD39 treated tumors (FIG. 11, panel C and […], low- and high-power magnification, respectively), localized to vascular endothelia, infiltrating immune cells, and stromal components of the tumor microenvironment. […]

CD39 enzymatic activity [3] = target: T2, CD39 enzymatic activity (Homo sapiens, UniProt P49961); test: Ex vivo intratumoral CD39 enzymatic activity (Kinase-Glo Plus); assay type: in vivo, mouse; settings: MC38 and 4T1 tumor cell suspensions, 20 μM ATP
T2 construct: from tissue; host or cells: hCD39KI mice (C57BL/6 with MC38, BALB/c with 4T1): tumours, spleen, whole blood / WBCs, tumour-draining lymph nodes
T2 sequence (P49961 1-510): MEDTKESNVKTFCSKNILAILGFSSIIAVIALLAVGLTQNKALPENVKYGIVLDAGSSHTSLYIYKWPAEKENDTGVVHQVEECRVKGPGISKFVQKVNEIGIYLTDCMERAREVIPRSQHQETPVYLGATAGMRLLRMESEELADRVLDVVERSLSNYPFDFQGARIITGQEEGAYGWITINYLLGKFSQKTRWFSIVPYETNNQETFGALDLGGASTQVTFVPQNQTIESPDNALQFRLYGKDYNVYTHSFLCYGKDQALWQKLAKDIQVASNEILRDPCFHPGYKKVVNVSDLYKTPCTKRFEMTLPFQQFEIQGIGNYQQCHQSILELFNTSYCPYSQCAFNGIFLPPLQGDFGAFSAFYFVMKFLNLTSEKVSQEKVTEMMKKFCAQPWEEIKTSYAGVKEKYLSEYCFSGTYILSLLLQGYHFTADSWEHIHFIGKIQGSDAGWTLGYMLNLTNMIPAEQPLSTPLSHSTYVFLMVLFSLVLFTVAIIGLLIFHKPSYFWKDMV
Experimental: Intratumoral and peripheral CD39 enzymatic activity was also evaluated ex vivo. Upon study completion, tumor samples obtained after sacrificing C57BL/6 hCD39KI MC38 and BALB/c hCD39KI 4T1 mice were placed in RPMI+20% FBS+250 μg/ml collagenase D (Millipore Sigma, Cat. No. 11088858001)+100 KU/ml DNAse 1 (Millipore Sigma Cat. No. D5025-150KU) and enzymatically digested using gentleMACS™ Octo Dissociator to obtain a single cell suspension. […] The cells were then treated with 20 μM ATP and incubated for an additional 30 minutes at 37° C., 5% CO2. At the end of the incubation period, the 96-well plate was spun at 1000 rpm for 3 minutes and the supernatant was collected. 2× Kinase-Glo® Plus (Promega, Cat. No. V3771) was then added to the supernatants. ATP levels in the supernatants were then measured by detecting luminescence using Flexstation® 3 microplate reader. Data are presented as relative luminescence units (RLU).

CD39 enzymatic activity [4] = target: T2, CD39 enzymatic activity; test: Ex vivo peripheral white blood cell CD39 enzymatic activity; assay type: in vivo, mouse; settings: white blood cells of 4T1 tumor-bearing hCD39KI mice, 20 μM ATP
From the text: To assay peripheral CD39 enzymatic activity, peripheral white blood cells (WBCs) were isolated from terminal blood samples of hCD39KI mice and assayed as generally described for the tumor cell suspensions. Briefly, whole blood samples were mixed with 1×Pharm Lyse red blood cell lysing solution (BD Biosciences, Cat. No. 555899). WBC pellets were then collected after washing with 1×PBS solution and stored in BamBanker cell freezing medium (Bulldog Bio, Cat. No. BB01). To perform the enzymatic inhibition assay, samples were thawed and then cells were plated at 2.5×10^4 cells per well in a 96-well plate. […] All wells were then treated with 20 μM ATP and incubated for 2 hours at room temperature. At the end of the incubation period, the 96-well plate was spun at 1000 rpm for 3 minutes and the supernatant was collected. 2× Kinase-Glo® Plus (Promega, Cat. No. V3771) was then added to the supernatants. ATP levels in the supernatants were then measured by detecting luminescence using Flexstation® 3 microplate reader. Data are presented as relative luminescence units (RLU).

[5] = system: immune subpopulations in tumor draining lymph nodes; test: Tumor draining lymph node immune subpopulation percentages; assay type: in vivo, mouse; settings: single agent or in combination with oxaliplatin
Experimental: (§3) Cell surface CD39 decreases with anti-CD39 treatment in tumor draining lymph nodes of hCD39KI mice. Tumor draining lymph nodes (TLDNs) (right inguinal lymph node) were also collected at the end of the C57BL/6 hCD39KI MC38 mouse study described above. Lymph nodes were dissociated in a 37° C. water bath in RPMI 1640 (Gibco, Cat. No. 11875119) containing of 0.6 mg/mL Collagenase P (Roche, Cat. No. 11213865001), 2.4 mg/mL Dispase II (Sigma, Cat. No. D4693), and 0.3 mg/mL DNAse I (Thermo Scientific, Cat. No. J62229 MB) for 30 minutes with gentle agitation. The dissociated lymph nodes were counted and 2×10^5 cells per well were plated in a 96-well polypropylene v-bottom plate. Cells were washed in PBS (Gibco, Cat. No. 14190-144) and resuspended in a PBS solution containing 1:25 Fc Block (BD, Cat. No. 564220) and 1:250 Near IR Fluorescent Reactive Dye (Invitrogen, Cat. No. L34976A) for 15 minutes in the dark. After the incubation, the cells were stained with an antibody cocktail (Table 20) and incubated for 30 minutes at 4° C. After the incubation, the cells were pelleted, supernatant removed, and 100 μL of fixation buffer (eBioscience, Cat. No. 00-8222-49) was added for 1 hour. […]

human CD39 [6] = target: T1, human CD39; test: Tumor draining lymph node cell surface CD39; assay type: in vivo, mouse; settings: tumor draining lymph nodes, hCD39KI MC38 mice
Experimental: as §3

[7] = Peripheral cytokine levels in plasma (MSD); assay type: in vivo, mouse; settings: terminal bleed, mice bearing MC38 tumors
Experimental: A terminal bleed of the mice bearing MC38 tumors were collected into BD Vacutainer® Heparin Tubes (BD Biosciences, Cat. No. 367871), centrifuged at 2000×g for 15 minutes, and supernatant plasma samples were collected. Cytokine levels in the plasma samples were analyzed using MSD following manufacturer's instructions. […] Data are presented as mean±SEM with a total of 11-12 mice per treatment group (FIG. 18). Statistical analyses were performed using an ANOVA with Tukey's multiple comparison test.

B1: ch39_mIGG2A.AAG: antibody 39 variable regions on mouse IgG2a; HC SEQ ID NO: 41, LC SEQ ID NO: 42; the anti-CD39 of Example 9 (antibody)
heavy: EVQLVESGGGLVQPGRSLKLSCLASGFTFNNYGMNWIRQAPGKGLEWVASFSSSSTYISYADTVKGRFTISRENAKNTLYLQMTSLRSEDTALYYCVRHGRYGGYGGFYFDYWGQGVMVTVSSAKTTAPSVYPLAPVCGDTTGSSVTLGCLVKGYFPEPVTLTWNSGSLSSGVHTFPAVLQSDLYTLSSSVTVTSSTWPSQSITCNVAHPASSTKVDKKIEPRGPTIKPCPPCKCPAPNAAGGPSVFIFPPKIKDVLMISLSPIVTCVVVDVSEDDPDVQISWFVNNVEVHTAQTQTHREDYNSTLRVVSALPIQHQDWMSGKEFKCKVNNKDLGAPIERTISKPKGSVRAPQVYVLPPPEEEMTKKQVTLTCMVTDFMPEDIYVEWTNNGKTELNYKNTEPVLDSDGSYFMYSKLRVEKKNWVERNSYSCSVVHEGLHNHHTTKSFSRTPGK
light: DTVLTQSPALAVSPGERVSISCRASEGVKSYMHWYQQKPGQQPKLLIYKASNLASGVPARFSGSGSGTDFTLTIDPVEADDTATYFCQQSWNDPTFGAGTKLELKRADAAPTVSIFPPSSEQLTSGGASVVCFLNNFYPKDINVKWKIDGSERQNGVLNSWTDQDSKDSTYSMSSTLTLTKDEYERHNSYTCEATHKTSTSPIVKSFNRNEC
- Tumor volume: p for anti-CD39+saline vs. anti-CD39+OXA (MC38 tumors): 0.0217
- Tumor volume: p for isotype+OXA vs. anti-CD39+OXA (MC38 tumors): 0.0372
- Body weight [1]: stable
- Lead-phosphate deposition by enzyme histochemistry (CD39 enzymatic activity) (human CD39 [2]): enzymatic activity has been blocked
- Intratumoral CD39 enzymatic activity (CD39 enzymatic activity [3]): inhibited
- Peripheral CD39 enzymatic activity (CD39 enzymatic activity [4]): inhibited
- Immune subpopulation percentages [5]: did not result in significant changes
- Immune subpopulation percentages ([5]; listed as anti-CD39): No significant changes
- Human CD39 on the surface of immune subpopulations (human CD39 [6]): significant reduction; also recorded: significant decrease
- Peripheral cytokine levels [7]: No elevation
